How the values were obtained:
[1] = molecular target: inter-α-inhibitor (IαI) (human) (UniProt P02760)
[2] = molecular target: inter-α-inhibitor (IαI) (human) (UniProt P02760); assay: cell-based or functional assay

Sequence of UniProt P02760 (P02760 206-352): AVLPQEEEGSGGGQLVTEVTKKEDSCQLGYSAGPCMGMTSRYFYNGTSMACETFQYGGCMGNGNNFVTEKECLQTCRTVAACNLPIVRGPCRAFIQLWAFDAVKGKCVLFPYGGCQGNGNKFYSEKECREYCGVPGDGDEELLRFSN

- EC50 (read off the curve): TSG-6 concentration for half-maximal HC transfer from plasma IαI (1:1000) to Cov-HA [1]: 0.4 nM
- HC transfer to Cov-HA in the presence of 50 nM TSG-6, plasma dilution series [2]: 200 pM
- decrease in HC transfer to Cov-HA in the presence of 50 nM TSG-6, plasma dilution 1:4000 [2]: 50%
- transfer of HCs from IαI in human plasma (1:1000) to Cov-HA, detected with anti-HC antibody [2]: 16 µM
Substance: TNF-stimulated gene 6 protein (TSG-6), recombinant (from UniProt P98066 18-277)

Source: US20120064150A1
